Experiment [1] deals with T1, MT-C34 peptide conjugated to bovine serum albumin (BSA-MT-C34 conjugate) (HIV-1, covalently conjugated to bovine serum albumin by the sulfo-SMCC linker).
T1 chain: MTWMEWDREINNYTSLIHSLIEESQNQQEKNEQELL
The experiment can be described thus: ELISA; replicate mAb-3, slope x 10^-8 M.

Experiment [2] has as its target T1, MT-C34 peptide conjugated to bovine …. In words: ELISA; replicate chAb-1, slope x 10^-8 M.

B1: C24-6 mouse monoclonal antibody against the MT-C34 peptide (mAb) (antibody, V domains shown)
VH: EVQLVESGGDLVKPGGSLKLSCAASGFTFSRFGMSWGRQTPDKRLEWVATISTGGSYTYYPDSVKGRFTISRDNAKNSLYLQMSSLKSEDTAMYYCARHDDTAVYAMDYWGQGTSVTVSS
VL: DVVMTQTPLSLPVSLGDQASISCRSSQSLVHSDGDTYLHWYLQKPGQSPKLLIYKVSNRFSGVPDRFSGSGSGTDFTLKISRAEAEDLGVYFCSQSTHVPLTFGAGTKLELK
Molecule B1 gave a Kd in experiment [1] of 2.26 nM. That is a single-digit nanomolar value.

B2: human chimeric anti-MT-C34 antibody (chAb) (antibody, V domains shown)
VH: EVQLVESGGDLVKPGGSLKLSCAASGFTFSRFGMSWGRQTPDKRLEWVATISTGGSYTYYPDSVKGRFTISRDNAKNSLYLQMSSLKSEDTAMYYCARHDDTAVYAMDYWGQGTSVTVSS
VL: DVVMTQTPLSLPVSLGDQASISCRSSQSLVHSDGDTYLHWYLQKPGQSPKLLIYKVSNRFSGVPDRFSGSGSGTDFTLKISRAEAEDLGVYFCSQSTHVPLTFGAGTKLELK
With B2, binding in experiment [2] was characterised by a dissociation constant (Kd) of 1.14 nM.

Source of the values: publication PMC11428423 (2024).
